{"source": "patent US6660837B1", "about": "“Modified protein derived from protein kinase N” (Kirin Beer Kabushiki Kaisha, priority 1995, dated 2003)", "biological_target": "T1, head-rod domain of NFL (Homo sapiens, UniProt P07196)", "T1 construct": "made in house; host or cells: bacteria (bacterially synthesized)", "T1 sequence (P07196 1-349)": "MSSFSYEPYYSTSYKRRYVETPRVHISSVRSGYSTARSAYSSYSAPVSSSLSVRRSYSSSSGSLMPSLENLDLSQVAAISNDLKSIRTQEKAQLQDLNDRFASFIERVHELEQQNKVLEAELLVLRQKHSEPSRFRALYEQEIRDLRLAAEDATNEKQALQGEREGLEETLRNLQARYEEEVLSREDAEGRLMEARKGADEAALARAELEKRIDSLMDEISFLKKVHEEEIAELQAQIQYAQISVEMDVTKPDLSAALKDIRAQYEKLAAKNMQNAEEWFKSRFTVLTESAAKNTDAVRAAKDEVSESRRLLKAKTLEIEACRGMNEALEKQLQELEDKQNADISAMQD", "assay": "In vitro binding of in vitro translated PKN to GST-NFL", "conditions": "GST pull-down", "from_the_text": "For in vitro transcription, truncated human PKN was made as follows; Expression vector pPKNN2 for N-terminal region of PKN (the amino acid sequence 1-474 in SEQ ID NO: 1, this region was designated as “PKNN2”) was made by digesting phPKN-H4 (a plasmid containing human PKN cDNA in pBluescript II SK (Mukai, H. & Ono, Y., Biochem. Biophys. Res. Commun. 199, 897-904 (1994)) with Bst EII, and filling in the ends with T4 DNA polymerase, and self-legation. This removed the original amino acid sequences C-terminal downstream of the BstEII site (1425 nucleotides from initiating ATG codon), and a stop codon was created in the plasmid sequence. Fragment coding for the amino acid sequence 614-942 in SEQ ID NO: 1, (This region was designated as “PKNC2”) containing the conserved catalytic domain of human PKN was made by PCR amplification. Expression vector pPKNC2 was made by subcloning this fragment into pRc/CMV (Invitfrogen Corp.). These plasmids were linealized by cutting with XbaI, and CRNA was transcribed using T7 RNA polymerase. For NFL, pBL (Nakagawa, T. et al., J. Cell. Biol. 129, 411-429 (1995)) was linealized by cutting with HindIII, and CRNA was transcribed using T3 RNA polymerase. For in vitro translation, these cRNAs were translated in rabbit reticulocyte lysate (Promega) in the presence of [^35S] methionine. […]", "data": [{"substance": "N-terminal region of PKN: N-terminal regulatory region of human PKN: 1-540 (PKNN1) in two-hybrid and GST fusions, 1-474 when in vitro translated", "values": [{"measurement": "binding to head-rod domain of NFL in vitro", "result": "bound"}]}]}
